# B1: inhibitory cardiac TnI peptide iTnI128-147 (peptide)
# peptide: Ac-LTQKIFDLRGKFKRPTLRRV-NH2
# notes: source: synthetic peptide (Genscript, purity higher than 95%)
# Legend:
# [1] = target: human cardiac troponin C, wild type (human, UniProt P63316 1-161); test: NMR titration; 1H-15N HSQC spectra at 37 °C of WT or C84Y cTnC in the Ca2+-bound (primed) state, without peptide and with increasing concentrations of peptide (15, 40, 70, 120, 150 and 200 μM); normalized 1H chemical shifts against peptide concentration; conditions: both partners purified
# [2] = target: human cardiac troponin C C84Y (human, UniProt P63316 1-161, C84Y); test: as above; conditions: both partners purified
binder,measurement,setting,value
B1,Kd,[1],59 ± 3.6 µM
same,Kd,[2],66 ± 5.5 µM
